From the supplement of paper PMC10126150
± gives the standard deviation of the averaged measurements.

Tested on: ATP
Test: switch fluorescence ratio, 500 uM ATP over buffer (Cy3 cluster intensity, sum of 5 cycles each) (fold (ratio)); higher = stronger signal-on switching upon ATP binding; sequences stand for … in TCGTCGGCAGCGTCAGATGTGTATAAGAGACAGTTTTTTTTTTTTTTTTTTTTTTTTT…TC
Conditions: aptamer strand: ATP DNA aptamer (quencher-CACCTGGGGGAGTATTGCGGAGGAAGG + anchor), 100 nM annealed; ATP concentration: 500 uM
Procedure, shortened: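 Imaging in selection buffer was followed by imaging after 15 min with 500 uM ATP at 22 °C, for Cy3-labelled switching-strand clusters annealed to 100 nM quencher-labelled ATP aptamer on a modified Illumina MiSeq flow-cell. Five of these buffer/ATP cycles ran, separated by NaOH stripping and re-annealing. The fluorescence ratio per cluster is summed target-cycle over summed buffer-cycle Cy3 intensity, averaged per switch-domain sequence; clusters outside 100-1000 RFU were removed.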
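Note: ATP exposure 15 min at 22 °C before imaging.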

Sequence	switch fluorescence ratio
TGGTCCCGGA	1 ± 0.017
GGGGGGGCTT	0.998 ± 0.031
CCGTATGTGC	1.751 ± 0.0087
TTATTGGGTC	1.002 ± 0.01
ATTACGGAAC	1.26 ± 0.018
GGGGGTGCGG	0.977 ± 0.044
AAACGCCTGC	1.08 ± 0.026
ATGTATAGCA	1 ± 0.041
TCAATTATAC	1.94 ± 0.41
GACTATGAAG	0.99431 ± 0.00011
TCAGTGAACT	1 ± 0.039
TCGAGATAGA	1.1 ± 0.11
TTGTGAATTT	1.28 ± 0.43
TGGGAAGTGT	0.9621 ± 0.0013
AATGGGGCCT	1.03 ± 0.02
GAAGGTCCAC	1.017 ± 0.0078
CTAAGGTTGG	0.974 ± 0.034
GGTGAAGTGC	0.992 ± 0.068
AACCCAATTT	0.985 ± 0.015
CCGTTGTGCC	1.022 ± 0.0018
AGGTCAGGTT	1.0131 ± 0.0003
TGGACGGAAG	0.984 ± 0.018
GAGAATCGGG	0.9564 ± 0.0089
GGTTAGGGGA	0.994 ± 0.036
ATATGATATC	1.03 ± 0.062

Sequence	switch fluorescence ratio
GGTCTAACAT	0.998 ± 0.015
GAGTGCGAAC	1.05 ± 0.082
ATATGGGAGG	0.969 ± 0.016
GGAAGCCACG	1.06 ± 0.022
CCAGTAATTT	1.038 ± 0.0029
CAAACGAGGT	0.994 ± 0.026
GTGTTTTATA	0.977 ± 0.026
GTGAGTACTT	1.03 ± 0.014
TCTGGGGGTT	1.02 ± 0.054
TTACATGTAG	1.04 ± 0.013
TTACTGGAAC	1.06 ± 0.021
ACGTCGGAG	0.995 ± 0.046
TTCGAGAGTG	0.945 ± 0.054
TTTCGTATAC	2.1 ± 0.041
TTTTGTAGCT	0.963 ± 0.023
TAAAGAACAT	0.997 ± 0.057
TTAGTATTTT	1.02 ± 0.087
GGGTCGCAGA	1.04 ± 0.058
CAGTGTGTGC	1.03 ± 0.015
GAAGAGGGGG	0.991 ± 0.043
TTAGCAAAAA	1.1 ± 0.075
GGTGTTAAAC	1.01 ± 0.035
ATGGATGCCT	1.01 ± 0.051
GGAATCAGGA	0.991 ± 0.011
TAAGCAGAGG	1.17 ± 0.13

Sequence	switch fluorescence ratio
CGTCTGATAG	0.99 ± 0.033
TTATGGCGGT	1.063 ± 0.0057
CAGGGTGGTC	1.04 ± 0.0048
TTTAAAAAGG	0.982 ± 0.029
CTGGGAACGG	0.965 ± 0.052
AAACGGATGG	0.968 ± 0.016
ATCGGAATTG	1.01 ± 0.015
GGGGTTTAGC	0.996 ± 0.015
TCGTTTTAGC	1.004 ± 0.0032
GGAGTCCGTT	1.02 ± 0.046
TTGGGGTATT	1.01 ± 0.025
TCGGTATTTG	0.967 ± 0.037
ATCCAAGTAA	1.04 ± 0.021
GACACTTAGG	1.05 ± 0.017
CGTTACGGGG	0.9788 ± 0.0055
ACGTTGCCAG	0.963 ± 0.019
TAAAGTTTAG	1.02 ± 0.015
ACTGGTGGCA	1.04 ± 0.028
GTGAAAGGCA	1.004 ± 0.005
GGGAATTGGG	0.997 ± 0.018
TTGACTTTGG	0.959 ± 0.02
CCAGGCTTGA	1.04 ± 0.052
TGAGAGTGGG	1.01 ± 0.021
CAGGATGAAT	0.999 ± 0.033
TTATATTGAT	1.017 ± 0.0029

Sequence	switch fluorescence ratio
GGGTTAACTT	0.999 ± 0.046
GACGTTACCA	1.61 ± 0.063
TCTTGAGGGA	1 ± 0.02
TCGTTTCGCA	1.11 ± 0.023
AAGTCGATTG	0.99 ± 0.017
TGGAGAAGTA	1.09 ± 0.2
CCGGGGAGTC	1.04 ± 0.044
CATTCAGGGG	1.2 ± 0.061
CAGGACTGCA	1.028 ± 0.0039
ATTAAAAAAC	1.01 ± 0.016
AGATGTTCCG	1.05 ± 0.018
TGGTATTTGG	0.949 ± 0.046
CGGGGCACTG	0.997 ± 0.018
CCAATGGATA	1.03 ± 0.02
AAGGAGTTGT	0.951 ± 0.05
ACTGATGGTA	1.02 ± 0.025
ACTCCGTCTT	1.441 ± 0.0027
CGGCTGGACG	0.958 ± 0.047
TGTCGGCGGT	1.05 ± 0.065
AGAGGGGGGA	1.02 ± 0.041
TTGTCATGGG	0.958 ± 0.011
AAAGTCATGT	1.02 ± 0.05
CGGGGAGGGT	0.967 ± 0.015
GGGGGTACCT	1.02 ± 0.019
CATTCGGGGT	0.994 ± 0.029
